Results from patent US20220054588A1, “USE OF SAP FOR THE TREATMENT OF EUROTIOMYCETES FUNGI INFECTIONS” (HUMANITAS MIRASOLE S.P.A., priority 2018, published 2022).

System: A. fumigatus
Assay: Inflammatory response in BALFs after i.t. injection of Sap-opsonised conidia
Type: in vivo
Conditions: Apcs−/− mice, 16 h
Method: FIG. 5 depicts the rescue of susceptibility to A. fumigatus in SAP-deficient mice. a) b) c) d) i.t. injection of non-opsonised or Sap-opsonised AF conidia. a) survival of wt and Apcs^−/− mice. Wt, n=10; wt+Sap, n=10; Apcs^−/−, n=14; Apcs^−/−+Sap, n=13.****, P<0.0001, wt vs. Apcs^−/− or Apcs^−/− vs. Apcs^−/−+Sap (Mantel-Cox test). b) and c) levels of TNF-α (b) and MPO (c) in BALFs of mice (16 h). b),****, P<0.0001;**, P<0.01. c),***, P<0.0005. d, FACS analysis of neutrophil recruitment in lung (16 h). Mean±SEM.****, P<0.0001;*, P<0.05. b), c), d), Mean±SEM; Mann-Whitney test.
BALFs collection and analysis. BALFs were performed with 1.5 ml PBS, pH 7.4, containing protease inhibitors (Complete tablets, Roche Diagnostic; PMSF, Sigma-Aldrich) and 10 mM EDTA (Sigma-Aldrich) with a 22-gauge venous catheter. BALFs were centrifuged, and supernatants were collected for quantification of total protein content with Bradford's assay (Bio-RAD) and cytokines as described below. After erythrocyte lysis with ACK solution (pH 7.2; NH4Cl 0.15 M, KHCO3 10 mM, EDTA 0.1 mM), cells were resuspended in PBS, pH 7.4, containing 10 mM EDTA and 1% heat-inactivated fetal bovine serum (FCS; Sigma-Aldrich), stained with live and death dye (ThermoFisher Scientific-Molecular Probes) and analysed by BD FACS Canto™ II Flow Cytometer (BD Biosciences) with the following specific antibodies: peridinin chlorophyll protein complex (PerCP)—or brilliant violet (BV) 650-labelled anti-CD45 (#30-F11, IgG2b; 4 μg/ml); FITC- or phycoerythrin (PE)-CF594-labelled anti-Ly6G (#1A8, IgG2a; 4 μg/ml); allophycocyanin (APC)—or BV421-labelled anti-CD11b (#M 1/70, RUO, IgG2b; 1 μg/ml) (all from BD Biosciences).
Proteins. A recombinant murine SAP from mouse myeloma cell line NSO was used (R&D Systems). Native SAP from human serum was purchased by Merck-Millipore. […] Purity of the recombinant protein was assessed by SDS-PAGE followed by silver staining. […] SAP levels were measured in mouse plasma by ELISA (DuoSet ELISA; R&D Systems). Murine TNF-α, CCL2, MPO were measured by ELISA (DuoSet ELISA; R&D Systems). […]

B1: recombinant murine SAP: recombinant murine SAP from mouse myeloma cell line NSO (R&D Systems) (protein, UniProt P12246 21-224, looked up)
Serum amyloid P-component: QTDLKRKVFVFPRESETDHVKLIPHLEKPLQNFTLCFRTYSDLSRSQSLFSYSVKGRDNELLIYKEKVGEYSLYIGQSKVTVRGMEEYLSPVHLCTTWESSSGIVEFWVNGKPWVKKSLQREYTVKAPPSIVLGQEQDNYGGGFQRSQSFVGEFSDLYMWDYVLTPQDILFVYRDSPVNPNILNWQALNYEINGYVVIRPRVWD
normalized: MPO level in BALFs | TNF-α level in BALFs | neutrophil number in BALFs
